Assay: ICP-MS quantification of Au and Pt in mice brains after IV cisplatin+insulin-GNPs
Format: in vivo, Male BALB/c mice
Details: 8 hours post-administration
Experimental: Male BALB/c mice aged 6-7 weeks were administered intravenously through the tail vein with 200 μl of cisplatin+insulin-GNPs (approximately 0.1 mg of cisplatin according to ICP-MS measurement of Pt concentration) (n=3), or with equivalent dose of free Cisplatin (100 μl, 1 mg/ml) (n=3). Mice were sacrificed 8 hours post-administration. The mice underwent perfusion using 20 ml saline to remove all the particles residing within the blood vessels.
After sacrifice and perfusion, mice brains were extracted and weighted followed by ICP-MS analysis to quantify the amounts of Au and Pt within the brain.

cisplatin+insulin-GNPs: 20 nm GNPs with mPEG-SH 5 kDa, PEG 1 kDa conjugated to cisplatin, PEG 5 kDa conjugated to insulin (60:20:20)
Au and Pt within the brain (ICP-MS) (IV 200 μl, after perfusion): both gold and platin were found within the brains
Amount of Pt within the brain compared to equivalent dose of free cisplatin (IV): significantly higher

— patent US12569569B2, “Nano-delivery system and therapeutic and diagnostic use thereof” (NANOCARRY THERAPEUTICS LTD., priority 2020, dated 2026)
